In article PMC7356578, “Heparin Blocks the Inhibition of Tissue Kallikrein 1 by Kallistatin through Electrostatic Repulsion” (Biomolecules, 2020):

B1: Recombinant human kallistatin (rKAL), wild type (natural protein, UniProt P29622 45-427, looked up)
chain: GSPSLKIAPANADFAFRFYYLIASETPGKNIFFSPLSISAAYAMLSLGACSHSRSQILEGLGFNLTELSESDVHRGFQHLLHTLNLPGHGLETRVGSALFLSHNLKFLAKFLNDTMAVYEAKLFHTNFYDTVGTIQLINDHVKKETRGKIVDLVSELKKDVLMVLVNYIYFKALWEKPFISSRTTPKDFYVDENTTVRVPMMLQDQEHHWYLHDRYLPCSVLRMDYKGDATVFFILPNQGKMREIEEVLTPEMLMRWNNLLRKRNFYKKLELHLPKFSISGSYVLDQILPRLGFTDLFSKWADLSGITKQQKLEASKSFHKATLDVDEAGTEAAAATSFAIKFFSAQTNRHILRFNRPFLVVIFSTSTQSVLFLGKVVDPTKP
notes: kallistatin (SERPINA4), human, residues 45-427; Vector pE-SUMO3; purified on a HisTrap column, so the SUMO3 fusion probably carries a His tag that leaves with SUMO3; During storage or crystallisation part of the protein is cleaved between F387 and F388 (P2-P1) by an unknown protease; the crystal structures hold this cleaved form; also called rKAL-WT; SERPINA4; source: E. coli BL21 (DE3), purified …
B2: Recombinant human tissue kallikrein 1 (KLK1), wild type (enzyme)
chain: not shown
notes: tissue kallikrein 1 (KLK1), human, residues 25-262; Vector pE-SUMO3; also called kallikrein-related peptidase 1
B3: rKAL-R300D (natural protein, human, UniProt P29622 45-427, looked up)
chain: GSPSLKIAPANADFAFRFYYLIASETPGKNIFFSPLSISAAYAMLSLGACSHSRSQILEGLGFNLTELSESDVHRGFQHLLHTLNLPGHGLETRVGSALFLSHNLKFLAKFLNDTMAVYEAKLFHTNFYDTVGTIQLINDHVKKETRGKIVDLVSELKKDVLMVLVNYIYFKALWEKPFISSRTTPKDFYVDENTTVRVPMMLQDQEHHWYLHDRYLPCSVLRMDYKGDATVFFILPNQGKMREIEEVLTPEMLMDWNNLLRKRNFYKKLELHLPKFSISGSYVLDQILPRLGFTDLFSKWADLSGITKQQKLEASKSFHKATLDVDEAGTEAAAATSFAIKFFSAQTNRHILRFNRPFLVVIFSTSTQSVLFLGKVVDPTKP
notes: kallistatin (SERPINA4), human, residues 45-427; source: E. coli BL21 (DE3), purified (HisTrap FF crude, SENP2 digestion, HiTrap SP)
B4: rKAL-R259D (natural protein, human, UniProt P29622 45-427, looked up)
chain: GSPSLKIAPANADFAFRFYYLIASETPGKNIFFSPLSISAAYAMLSLGACSHSRSQILEGLGFNLTELSESDVHRGFQHLLHTLNLPGHGLETRVGSALFLSHNLKFLAKFLNDTMAVYEAKLFHTNFYDTVGTIQLINDHVKKETRGKIVDLVSELKKDVLMVLVNYIYFKALWEKPFISSRTTPKDFYVDENTTVRVPMMLQDQEHHWYLHDDYLPCSVLRMDYKGDATVFFILPNQGKMREIEEVLTPEMLMRWNNLLRKRNFYKKLELHLPKFSISGSYVLDQILPRLGFTDLFSKWADLSGITKQQKLEASKSFHKATLDVDEAGTEAAAATSFAIKFFSAQTNRHILRFNRPFLVVIFSTSTQSVLFLGKVVDPTKP
notes: as for B3
B5: rKAL-307/308D (natural protein, human, UniProt P29622 45-427, looked up)
chain: GSPSLKIAPANADFAFRFYYLIASETPGKNIFFSPLSISAAYAMLSLGACSHSRSQILEGLGFNLTELSESDVHRGFQHLLHTLNLPGHGLETRVGSALFLSHNLKFLAKFLNDTMAVYEAKLFHTNFYDTVGTIQLINDHVKKETRGKIVDLVSELKKDVLMVLVNYIYFKALWEKPFISSRTTPKDFYVDENTTVRVPMMLQDQEHHWYLHDRYLPCSVLRMDYKGDATVFFILPNQGKMREIEEVLTPEMLMRWNNLLRDDNFYKKLELHLPKFSISGSYVLDQILPRLGFTDLFSKWADLSGITKQQKLEASKSFHKATLDVDEAGTEAAAATSFAIKFFSAQTNRHILRFNRPFLVVIFSTSTQSVLFLGKVVDPTKP
notes: kallistatin (SERPINA4), human, residues 45-427; double mutant of K307 and R308 to Asp; also called rKAL-K307/308D; source: E. coli BL21 (DE3), purified (HisTrap FF crude, SENP2 digestion, HiTrap SP)
B6: rKAL-R394D (natural protein, human, UniProt P29622 45-427, looked up)
chain: GSPSLKIAPANADFAFRFYYLIASETPGKNIFFSPLSISAAYAMLSLGACSHSRSQILEGLGFNLTELSESDVHRGFQHLLHTLNLPGHGLETRVGSALFLSHNLKFLAKFLNDTMAVYEAKLFHTNFYDTVGTIQLINDHVKKETRGKIVDLVSELKKDVLMVLVNYIYFKALWEKPFISSRTTPKDFYVDENTTVRVPMMLQDQEHHWYLHDRYLPCSVLRMDYKGDATVFFILPNQGKMREIEEVLTPEMLMRWNNLLRKRNFYKKLELHLPKFSISGSYVLDQILPRLGFTDLFSKWADLSGITKQQKLEASKSFHKATLDVDEAGTEAAAATSFAIKFFSAQTNDHILRFNRPFLVVIFSTSTQSVLFLGKVVDPTKP
notes: as for B3
B7: rKAL-312/313D (natural protein, human, UniProt P29622 45-427, looked up)
chain: GSPSLKIAPANADFAFRFYYLIASETPGKNIFFSPLSISAAYAMLSLGACSHSRSQILEGLGFNLTELSESDVHRGFQHLLHTLNLPGHGLETRVGSALFLSHNLKFLAKFLNDTMAVYEAKLFHTNFYDTVGTIQLINDHVKKETRGKIVDLVSELKKDVLMVLVNYIYFKALWEKPFISSRTTPKDFYVDENTTVRVPMMLQDQEHHWYLHDRYLPCSVLRMDYKGDATVFFILPNQGKMREIEEVLTPEMLMRWNNLLRKRNFYDDLELHLPKFSISGSYVLDQILPRLGFTDLFSKWADLSGITKQQKLEASKSFHKATLDVDEAGTEAAAATSFAIKFFSAQTNRHILRFNRPFLVVIFSTSTQSVLFLGKVVDPTKP
notes: kallistatin (SERPINA4), human, residues 45-427; double mutant of K312 and K313 to Asp; also called rKAL-K312/313D; source: E. coli BL21 (DE3), purified (HisTrap FF crude, SENP2 digestion, HiTrap SP)

What was measured:
Conditions in all cases: both partners purified
[1] = target: B2; experiment: kinetics of protease inhibition (discontinuous assay); pseudo-first-order; 10 nM protease with 100-500 nM kallistatin variant, PBS, 0.1% PEG 8000, 22 ± 1 °C; apparent second-order rate constant kapp from kobs; k2 = kapp × SI
[2] = target: B2; experiment: stoichiometry of inhibition by titration of residual protease activity; 1 µM protease with increasing kallistatin variant in PBS, 0.1% PEG 8000, 2 h, 37 °C; residual activity on 0.2 mM H-D-Val-Leu-Arg-AMC; intercept on the abscissa
[3] = target: B1; experiment: SDS-stable covalent serpin-protease complex on reducing SDS-PAGE; 2 µg rKAL mixed with 0.5-1 µg KLK1 (2-3 min), 5 µg KLK1-99Lm (20 min) or 0.5 µg KLK1-70Lm (2 min) at room temperature, no heparin; Coomassie stain

Row | Binder | k2 (kapp × SI, second-order rate constant) [1] [M⁻¹ s⁻¹] | kapp (apparent second-order rate constant) [1] [M⁻¹ s⁻¹] | SI (stoichiometry of inhibition) [2] | binding result [3]
1 | B1 | 3400 | 2400 | 1.4 | –
2 | B2 | – | – | – | binds
3 | B3 | 2900 | 1600 | 1.8 | –
4 | B4 | 3500 | 2200 | 1.6 | –
5 | B5 | 2000 | 1300 | 1.5 | –
6 | B6 | 1800 | 1000 | 1.8 | –
7 | B7 | 1500 | 1000 | 1.5 | –
